{"source": "the supplement of paper PMC11865577"}
{"tested_on": "TO-N3 (biotin conjugate)", "assay": "pull-down binding Z-score (relative to library population); higher = stronger binding", "conditions": "RNA library: Library-2", "summary_of_the_method": "(§1)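 To score binding, a beads-only signal was subtracted, barcoded replicate probes were averaged with the highest and lowest dropped, and the value was converted to a Z-score using the library mean and standard deviation. The input was 1 μg of Cy5- or Cy3-end-labelled RNA library, heat-folded in phosphate/NaCl/KCl buffer and mixed for 60 min at 25 °C with streptavidin beads carrying 100 pmol of biotin-conjugated small molecule. Bound RNA was eluted in hot SDS and hybridised to a DNA barcode microarray at 55.5 °C for 20 h.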"}
{"sequence": "CCUUUGUGAGCAGUGUGACCCAAGGCCUGUGGACAGGG [hsa-mir-555]", "pull-down binding Z-score": 0.241}
{"sequence": "CGACUCCGUGGCAGAGUUCA [hsa-mir-3666]", "pull-down binding Z-score": 0.805}
{"sequence": "CGAGAAGCGCCUGCGUCUCCCAUUUUCG [hsa-mir-3944]", "pull-down binding Z-score": 0.763}
{"sequence": "CGAGACACAGAAACAGACACCUGCCCUCGA [hsa-mir-151b]", "pull-down binding Z-score": 1.21}
{"sequence": "CGAGCCGCUUCCUCACGGCUCG [hsa-mir-4665]", "pull-down binding Z-score": -1.04}
{"sequence": "CGAGGUGG [hsa-mir-4302]", "pull-down binding Z-score": 0.973}
{"sequence": "CGAGGUGGGCUAGGCUCGGGCCCGUGGCG [hsa-mir-3656]", "pull-down binding Z-score": 1.7}
{"sequence": "CGAGUCUGAGCCUUUAAAAGCCACUCU [hsa-mir-1287]", "pull-down binding Z-score": 0.0262}
{"sequence": "CGAUAAACCCCUAAAUAGGGACUUUCCCG [hsa-mir-484]", "pull-down binding Z-score": -0.511}
{"sequence": "CGCCAGCUCGCUGACAGCACGACUCAGGGCG [hsa-mir-658]", "pull-down binding Z-score": 0.25}
{"sequence": "CGCGCCCGGCCUAACUUUUAAGAAACGUCGGCCCGGGAGCG [hsa-mir-5095]", "pull-down binding Z-score": 1.27}
{"sequence": "CGCGCGUCGAGUCAGCCGUGUG [hsa-mir-933]", "pull-down binding Z-score": 0.126}
{"sequence": "CGCGGAGCAGCGCUGGGUGCAGCGCCUG [hsa-mir-4508]", "pull-down binding Z-score": 0.334}
{"sequence": "CGCGGGCGGGUCCCAGGCUGGGCCCCUCGGAGGCCGGGUGCUCACUGCCCCGUCCCGG [hsa-mir-6789]", "pull-down binding Z-score": 1.7}
{"tested_on": "TO-N3-2 (biotin conjugate)", "assay": "pull-down binding Z-score (relative to library population); higher = stronger binding", "conditions": "RNA library: Library-2", "summary_of_the_method": "as §1"}
{"sequence": "CCGCUAGUGGAAGAAGAUGGCGG [hsa-mir-6125]", "pull-down binding Z-score": 1.59}
{"sequence": "CCGGCCCGUUAGUUGCCCGGGCCCG [hsa-mir-3181]", "pull-down binding Z-score": 0.914}
{"sequence": "CCGGGCGCUGCUCUGACCCCUCGU [hsa-mir-187]", "pull-down binding Z-score": 1.39}
{"sequence": "CCGGGGCAGGAGACCCCGCG [hsa-mir-1470]", "pull-down binding Z-score": 0.265}
{"sequence": "CCGGGUGCCCACAAGACUGUG [hsa-mir-3138]", "pull-down binding Z-score": 2.06}
{"sequence": "CCGUAUAUAUAUAUAUAUAUAUAUAGAUAUCUCCAUAUAUAUGG [hsa-mir-620]", "pull-down binding Z-score": -0.872}
{"sequence": "CCGUGCCCUGGCCACUCAUUCGG [hsa-mir-6741]", "pull-down binding Z-score": 1.1}
{"sequence": "CCGUUUAAAAAGGCAUCUCCAAG [hsa-mir-608]", "pull-down binding Z-score": 0.0602}
{"sequence": "CCUAGAGUCCAUUCUUUACUCUAGG [hsa-mir-4779]", "pull-down binding Z-score": -1.28}
{"sequence": "CCUAGUGGCUAGCCCUGGGUCUAGCAGCCUAUGGCAGUGUCUGGUAAACACUGGUGGAGUCCUGGG [hsa-mir-6745]", "pull-down binding Z-score": 1.22}
{"sequence": "CCUCAAUCACUUGCCAGAGAGAUUGG [hsa-mir-1200]", "pull-down binding Z-score": -0.136}
{"sequence": "CCUCACCUGCUGAGAG [hsa-mir-3670-3_3670-2_3670-1_3670-4]", "pull-down binding Z-score": 0.19}
{"sequence": "CCUCCCCCAGUGCCAGG [hsa-mir-3196]", "pull-down binding Z-score": 0.352}
{"sequence": "CCUCCCUAGGGGAUCCCAGGUAGG [hsa-mir-4688]", "pull-down binding Z-score": -0.0612}
{"sequence": "CCUCGAAGCUGCCUUUAGAAAUGAGG [hsa-mir-4496]", "pull-down binding Z-score": 0.142}
{"sequence": "CCUCUCGGGAACUACAAGUCCCAGGGGG [hsa-mir-2861]", "pull-down binding Z-score": -0.455}
{"sequence": "CCUCUGUCCUCUGUCCUCUACCUAUAGAGG [hsa-mir-641]", "pull-down binding Z-score": 0.141}
{"sequence": "CCUGACAGACAGCCUGAUAGACAGG [hsa-mir-4661]", "pull-down binding Z-score": 0.908}
{"sequence": "CCUGAUGAAUCUGAGGCCAGG [hsa-mir-577]", "pull-down binding Z-score": 0.326}
{"sequence": "CCUGCAGCCCCCAGGUGGGGGG [hsa-mir-4271]", "pull-down binding Z-score": 0.398}
{"sequence": "CCUGCAGGUGAGAGCGGGAACACCUGCAU [hsa-mir-7112]", "pull-down binding Z-score": 1.03}
{"sequence": "CCUGCCACGUCAAAGGAGGCAGA [hsa-mir-3154]", "pull-down binding Z-score": 0.137}
{"sequence": "CCUGCCCAAAUGGUGGAGCAGAUUCGAGGGGCAGG [hsa-mir-4436b-2_4436b-1]", "pull-down binding Z-score": -0.125}
{"sequence": "CCUGCCUCAGAACUACUGAACAGAGUCACUGGGUGUGGA [hsa-mir-1289-2]", "pull-down binding Z-score": 0.785}
{"sequence": "CCUGCCUGCCCUCCAGGUCAUGUUCCAGUGUCCCACAGAUGCAGCACCACGG [hsa-mir-6075]", "pull-down binding Z-score": 1.54}
{"sequence": "CCUGCUGUGUGAAACAAAAGUAAG [hsa-mir-302c]", "pull-down binding Z-score": 0.474}
{"sequence": "CCUGGAGAGCUGCUGUCUCCAG [hsa-mir-6746]", "pull-down binding Z-score": 0.355}
{"sequence": "CCUGUAUGUCUCCCCGCAGCACCGUCAUCGU [hsa-mir-6774]", "pull-down binding Z-score": 0.832}
{"sequence": "CCUGUCCUAUGACAAACAUGGCAGG [hsa-mir-3927]", "pull-down binding Z-score": -0.673}
{"sequence": "CCUGUUUGAAUAUUUCACCAGAAACAGG [hsa-mir-4433b]", "pull-down binding Z-score": -0.74}
{"sequence": "CCUGUUUUACAAAUAAGGAAAUAAACUCAGG [hsa-mir-1321]", "pull-down binding Z-score": -1.08}
{"sequence": "CCUUAGCACUAGCAGGAGG [hsa-mir-612]", "pull-down binding Z-score": 0.00744}
{"sequence": "CCUUCCAAUACCUGUAAGCAGAAGG [hsa-mir-3158-2]", "pull-down binding Z-score": 0.397}
{"sequence": "CCUUCGCUUUAUUUGUGACGAAUC [hsa-mir-154]", "pull-down binding Z-score": -0.185}
{"sequence": "CCUUCUAAUGAGUAUGCUUAACUUGGUAGAAGG [hsa-mir-3914-1]", "pull-down binding Z-score": -0.858}
{"sequence": "CCUUCUACCAAGUUAAGCAUACUCAUUAGAAGG [hsa-mir-3914-2]", "pull-down binding Z-score": -0.346}
{"sequence": "CCUUCUCCUCUUUGCAGUGAUAAAGGAGG [hsa-mir-4460]", "pull-down binding Z-score": -0.549}
{"sequence": "CCUUCUGCUUACAGGUAUUGGAAGG [hsa-mir-3158-1]", "pull-down binding Z-score": -0.685}
{"sequence": "CCUUCUGUAUACAUGUAUACAGGAGGAAGG [hsa-mir-4716]", "pull-down binding Z-score": 0.00714}
{"sequence": "CCUUGCCUGUGGCAAGACCACUUCGGUUCAAGG [hsa-mir-4295]", "pull-down binding Z-score": 0.237}
{"sequence": "CCUUGUGAAUGUCGGGCAAUGG [hsa-mir-4701]", "pull-down binding Z-score": 0.503}
{"sequence": "CCUUUCCCCUCAGACCAAGG [hsa-mir-3131]", "pull-down binding Z-score": -0.176}
{"sequence": "CCUUUGUGAGCAGUGUGACCCAAGGCCUGUGGACAGGG [hsa-mir-555]", "pull-down binding Z-score": 1.15}
{"sequence": "CGACUCCGUGGCAGAGUUCA [hsa-mir-3666]", "pull-down binding Z-score": 0.845}
{"sequence": "CGAGAAGCGCCUGCGUCUCCCAUUUUCG [hsa-mir-3944]", "pull-down binding Z-score": 1.37}
{"sequence": "CGAGACACAGAAACAGACACCUGCCCUCGA [hsa-mir-151b]", "pull-down binding Z-score": 1.69}
{"sequence": "CGAGCCGCUUCCUCACGGCUCG [hsa-mir-4665]", "pull-down binding Z-score": -0.871}
{"sequence": "CGAGGUGG [hsa-mir-4302]", "pull-down binding Z-score": 0.675}
{"sequence": "CGAGGUGGGCUAGGCUCGGGCCCGUGGCG [hsa-mir-3656]", "pull-down binding Z-score": 2.8}
{"sequence": "CGAGUCUGAGCCUUUAAAAGCCACUCU [hsa-mir-1287]", "pull-down binding Z-score": 0.586}
{"sequence": "CGAUAAACCCCUAAAUAGGGACUUUCCCG [hsa-mir-484]", "pull-down binding Z-score": -0.157}
{"sequence": "CGCCAGCUCGCUGACAGCACGACUCAGGGCG [hsa-mir-658]", "pull-down binding Z-score": 1.15}
{"sequence": "CGCGCCCGGCCUAACUUUUAAGAAACGUCGGCCCGGGAGCG [hsa-mir-5095]", "pull-down binding Z-score": 1.15}
{"sequence": "CGCGCGUCGAGUCAGCCGUGUG [hsa-mir-933]", "pull-down binding Z-score": 0.532}
{"sequence": "CGCGGAGCAGCGCUGGGUGCAGCGCCUG [hsa-mir-4508]", "pull-down binding Z-score": 1.5}
{"sequence": "CGCGGGCGGGUCCCAGGCUGGGCCCCUCGGAGGCCGGGUGCUCACUGCCCCGUCCCGG [hsa-mir-6789]", "pull-down binding Z-score": 4.13}
